In publication PMC1635325 (Nucleic Acids Research, 2006):

B1: recombinant MnmE (rMnmE, 53 kDa) (natural protein, E. coli, UniProt P25522 1-454, looked up)
chain: MSDNDTIVAQATPPGRGGVGILRISGFKAREVAETVLGKLPKPRYADYLPFKDADGSVLDQGIALWFPGPNSFTGEDVLELQGHGGPVILDLLLKRILTIPGLRIARPGEFSERAFLNDKLDLAQAEAIADLIDASSEQAARSALNSLQGAFSARVNHLVEALTHLRIYVEAAIDFPDEEIDFLSDGKIEAQLNDVIADLDAVRAEARQGSLLREGMKVVIAGRPNAGKSSLLNALAGREAAIVTDIAGTTRDVLREHIHIDGMPLHIIDTAGLREASDEVERIGIERAWQEIEQADRVLFMVDGTTTDAVDPAEIWPEFIARLPAKLPITVVRNKADITGETLGMSEVNGHALIRLSARTGEGVDVLRNHLKQSMGFDTNMEGGFLARRRHLQALEQAAEHLQQGKAQLLGAWAGELLAEELRLAQQNLSEITGEFTSDDLLGRIFSSFCIGK
B2: FLAG-GidA (natural protein, E. coli, UniProt P0A6U3 1-629, looked up)
chain: MFYPDPFDVIIIGGGHAGTEAAMAAARMGQQTLLLTHNIDTLGQMSCNPAIGGIGKGHLVKEVDALGGLMAKAIDQAGIQFRILNASKGPAVRATRAQADRVLYRQAVRTALENQPNLMIFQQAVEDLIVENDRVVGAVTQMGLKFRAKAVVLTVGTFLDGKIHIGLDNYSGGRAGDPPSIPLSRRLRELPLRVGRLKTGTPPRIDARTIDFSVLAQQHGDNPMPVFSFMGNASQHPQQVPCYITHTNEKTHDVIRSNLDRSPMYAGVIEGVGPRYCPSIEDKVMRFADRNQHQIFLEPEGLTSNEIYPNGISTSLPFDVQMQIVRSMQGMENAKIVRPGYAIEYDFFDPRDLKPTLESKFIQGLFFAGQINGTTGYEEAAAQGLLAGLNAARLSADKEGWAPARSQAYLGVLVDDLCTLGTKEPYRMFTSRAEYRLMLREDNADLRLTEIGRELGLVDDERWARFNEKLENIERERQRLKSTWVTPSAEAAAEVNAHLTAPLSREASGEDLLRRPEMTYEKLTTLTPFAPALTDEQAAEQVEIQVKYEGYIARQQDEIEKQLRNENTLLPATLDYRQVSGLSNEVIAKLNDHKPASIGQASRISGVTPAAISILLVWLKKQGMLRRSA

Columns and labels:
FLAG-GidA = biological target: B2; assay: native gel or EMSA
SEC = biological target: the molecule itself; assay: SEC

Binder: B1
- stoichiometry N (FLAG-GidA): 1 MnmE per GidA (α2β2, 2:2)

Binder: B2
- stoichiometry N (SEC): 2
